Source: article PMC9618068

Columns and labels:
[1] = target: actin (ATP-G-actin from chicken skeletal muscle) (chicken) (UniProt P68139)
[2] = target: actin (ATP-G-actin from chicken skeletal muscle) (chicken) (UniProt P68139); assay: ITC

Substance | Pi released from actin in the presence of F1^15-160, compared to F1A [1] [%] | stoichiometry N [2]
F1^15-160, an N-terminally truncated version of F1 that lacks Asn13 (domain or fragment) | 25 | –
fragmin domain-1 (F1) (residues 1 to 160) (domain or fragment) | – | 0.956
